Results published in paper PMC10003157, “Structurally Different Yet Functionally Similar: Aptamers Specific for the Ebola Virus Soluble Glycoprotein and GP1,2 and Their Application in Electrochemical Sensing”.

What was measured:
EBOV sGP [1] = biological target: T1, EBOV sGP (Zaire ebolavirus (EBOV), UniProt P60170); experiment: filter binding; conditions: protein: recombinant; tags: C-terminal thrombin site + 6xHis; chain copies: 2; label: 5' 32P
SUDV sGP [2] = biological target: T2, SUDV sGP (Sudan virus (SUDV), UniProt Q7T9E0 33-324); experiment: filter binding; conditions: protein: commercial; chain copies: 2; label: 5' 32P
T2 sequence: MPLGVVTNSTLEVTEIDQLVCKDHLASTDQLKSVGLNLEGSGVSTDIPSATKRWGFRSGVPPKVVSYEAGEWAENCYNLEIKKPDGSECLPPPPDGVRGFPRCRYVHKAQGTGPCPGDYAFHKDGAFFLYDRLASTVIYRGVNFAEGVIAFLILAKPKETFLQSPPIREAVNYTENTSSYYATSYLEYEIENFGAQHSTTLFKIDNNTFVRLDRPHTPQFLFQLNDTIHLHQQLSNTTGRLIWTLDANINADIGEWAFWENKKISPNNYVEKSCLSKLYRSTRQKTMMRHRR

NGAL = NGAL (human, UniProt P80188 21-198); experiment: filter binding; with or without 10 mM DTT, no effect; NBB buffer; conditions: protein: recombinant; label: 32P
His-Lcn2 = biological target: T3, His-Lcn2 (mouse, UniProt P11672 21-200); experiment: filter binding; Nitrocellulose filter capture in PBS at 23-24 C (NA53 in NBB); EIS sensor in PBS with or without 10% serum; conditions: protein: recombinant; tags: His; label: 5' 32P
T3 sequence: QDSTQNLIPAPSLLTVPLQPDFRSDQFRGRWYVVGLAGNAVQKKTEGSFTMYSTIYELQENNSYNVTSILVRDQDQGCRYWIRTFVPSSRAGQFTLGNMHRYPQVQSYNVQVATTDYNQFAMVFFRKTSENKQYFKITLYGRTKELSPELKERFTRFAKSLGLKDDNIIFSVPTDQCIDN

SUDV sGP [3] = biological target: T2, SUDV sGP; experiment: electrochemical impedance (NAAO sensor); PBS; same affinity as EBOV sGP; conditions: protein: commercial; chain copies: 2
EBOV sGP [4] = biological target: T1, EBOV sGP; experiment: electrochemical impedance (NAAO sensor); 10% human serum; conditions: protein: recombinant; tags: C-terminal thrombin site + 6xHis; chain copies: 2

B1: 6022 (ssDNA)
DNA: GCCTGTTGTGAGCCTCCTGTCGAACCCTATCTTGTTCATGCTATTCTCAATATTTTCGGTTCACTTACCGTCTGCCTTTGAGCGTTTATTCTTGTCTCCC
B1 showed a Kd (EBOV sGP [1]) of roughly 23 nM.

B2: 6020 (ssDNA)
DNA: GCCTGTTGTGAGCCTCCTGTCGAACATACCGTTCCACCCACATTTCAACCTTCATCCATCCTATTATTAGCCCACTCTTGAGCGTTTATTCTTGTCTCCC
B2: no binding (EBOV sGP [1]).

B3: 6012 (ssDNA)
DNA: GCCTGTTGTGAGCCTCCTGTCGAACGTATTTCTTGCTTCCTTCCTTGCCGCGCACATTGCAGTATAAGTACCTGTCGTTGAGCGTTTATTCTTGTCTCCC
With B3 the Kd (EBOV sGP [1]) was 27 ± 12 nM and the Kd (SUDV sGP [2]) was 151 ± 44 nM.

B4: 70SGP2A (ssDNA)
DNA: GCCTGTTGTGAGCCTCCTGTCGAACAACCACTCATATCTACTACATGACTTGCTCCATTCTGTTCTTTCT
In the case of B4, the Kd (EBOV sGP [1]) is reported as 27 ± 15 nM.

B5: NA53 (ssDNA)
DNA: AGCAGCACAGAGGTCAGATGCCGTGCGGATGTACAGGGACTTGGATAGTTTCTGACCTATGCGTGCTACCGTGAA
B5: binds (NGAL).

B6: 6011 (ssDNA)
DNA: GCCTGTTGTGAGCCTCCTGTCGAACAACCACTCATATCTACTACATGACTTGCTCCATTCTGTTCTTTCTCTACGCATTGAGCGTTTATTCTTGTCTCCC
In the case of B6, the Kd (EBOV sGP [1]) is reported as 8.5 ± 3.2 nM, the Kd (SUDV sGP [2]) is reported as 165 ± 44 nM and the binding result (His-Lcn2) is reported as “no binding”.

B7: 5'thio-6011 (ssDNA)
DNA: GCCTGTTGTGAGCCTCCTGTCGAACAACCACTCATATCTACTACATGACTTGCTCCATTCTGTTCTTTCTCTACGCATTGAGCGTTTATTCTTGTCTCCC
modifications: 5' thiol
For B7, the binding result (SUDV sGP [3]) was “binds” and the Kd (EBOV sGP [4]) was 2.2 ± 0.75 nM.
